# Experimental data: the RNAGym collection of RNA variant scans (doi:10.7554/elife.80360)
# B1: CPEB3 Ribozyme (parent)
# chain: GGGGGCCACAGCAGAAGCGUUCACGUCGCGGCCCCUGUCAGAUUCUGGUGAAUCUGCGAAUUCUGCUGU
# Variants of: B1
# Assay: self-cleavage, relative activity (ratio to wild type); higher = more cleavage; co-transcriptional
row,Variant,self-cleavage
1,A23U C66G,0.848
2,A23U C66U,0.964
3,A23C C66A,0.908
4,A23C C66U,0.94
5,A23C G30A,0.743
6,A23C G30C,0.58
7,A23C G58C,0.891
8,A23C G31U,0.528
9,A23C G31C,0.186
10,A23U U44C,0.869
11,A23U U44A,0.963
12,A23U U44G,0.882
13,A23U U62A,0.635
14,A23G G65C,0.537
15,A23G G65U,0.554
16,A23G G65A,0.752
17,A23G U67G,0.992
18,A23G U67C,0.925
19,A23G U67A,1.03
20,A23U C32G,0.71
21,A23U C32U,1.01
22,A23G C27A,0.303
23,A23G C27U,0.222
24,A23C G25A,0.203

row,Variant,self-cleavage
1,A23C G41U,0.815
2,C24A U26G,0.283
3,C24A U26A,0.257
4,C24A C45G,0.677
5,C24A C45A,0.712
6,C24A C45U,0.751
7,A23U A51C,0.995
8,A23U A51U,0.995
9,A23U G25C,0.185
10,A23U G25U,0.144
11,A23U G25A,0.214
12,A23U U43C,0.931
13,A23U U43A,0.954
14,A23C U43G,0.82
15,A23C U43A,0.771
16,A23C G28C,0.183
17,A23C G28A,0.206
18,A23C U62G,0.853
19,A23C U62C,0.818
20,A23U C34A,0.956
21,A23U C34G,0.819
22,A23U U64A,0.943
23,A23U U64G,0.917
24,A23G U43A,0.877

row,Variant,self-cleavage
1,A23G U43C,0.937
2,A23G U43G,0.721
3,A23U U53C,0.928
4,A23U U53G,0.959
5,A23U U53A,0.903
6,C24A C27G,0.105
7,C24A C27A,0.16
8,C24A A60U,0.252
9,C24A A60C,0.283
10,C24A A60G,0.35
11,C24A C63U,0.699
12,C24A C63A,0.357
13,C24A G37C,0.264
14,C24A G37A,0.229
15,A23G C35G,0.336
16,A23G C35A,0.215
17,A23U C54U,1.02
18,A23U C54G,0.943
19,A23U C54A,0.901
20,A23G G48U,0.972
21,A23G G48C,0.975
22,A23G C63G,0.521
23,A23G C63U,0.95
24,A23G C63A,0.681

row,Variant,self-cleavage
1,A23U A60C,0.385
2,A23U A60G,0.642
3,A23U A60U,0.66
4,C24A G47A,0.771
5,C24A A51G,0.754
6,C24A A51C,0.68
7,A23U U26C,1.04
8,A23U U26A,0.914
9,A23U U26G,0.92
10,C24A C35G,0.173
11,C24A G25U,0.17
12,C24A G25A,0.13
13,C24A G25C,0.122
14,A23C C54U,0.967
15,A23C C54G,0.921
16,C24A A42G,0.53
17,A23U G56U,0.955
18,A23U G56A,1.01
19,A23U G56C,0.936
20,C24A A59G,0.731
21,C24A A59U,0.267
22,A23U A52C,1.04
23,A23U A52U,0.996
24,A23U A52G,0.642

row,Variant,self-cleavage
1,C24A A52G,0.772
2,A23G G41A,0.676
3,A23G G41U,0.798
4,A23G G41C,0.581
5,A23U G48U,1.01
6,A23U G48A,0.984
7,A23U U69C,1.07
8,A23U U69A,1.03
9,A23C G37A,0.3
10,A23C G37C,0.254
11,A23C U36C,0.679
12,A23G G58C,0.97
13,C24A G56C,0.31
14,C24A G56A,0.52
15,C24A G56U,0.576
16,A23U C45U,0.975
17,A23C G68U,0.995
18,A23C G68C,0.977
19,A23U C35U,0.974
20,A23U C35G,0.658
21,A23G C39G,0.888
22,A23G C39A,0.785
23,A23U G68C,1.01
24,A23U G68A,0.989

row,Variant,self-cleavage
1,A23U G68U,1.03
2,C24A,0.77
3,A23G G56U,0.914
4,A23G G56C,0.751
5,C24A C39U,0.493
6,C24A C39G,0.682
7,C24A C39A,0.349
8,A23G U64A,0.753
9,A23U G50U,0.958
10,A23U G50A,1.01
11,A23U G50C,0.978
12,A23C U46A,0.923
13,A23G U55C,0.789
14,A23G U55G,0.752
15,A23G U55A,0.879
16,A23G A40G,0.992
17,A23G A40C,0.328
18,C24A G30U,0.159
19,C24A G30A,0.217
20,A23G C34A,0.627
21,A23G C34U,0.932
22,A23U C29A,0.8
23,A23U C29U,0.437
24,A23U C29G,0.569

row,Variant,self-cleavage
1,A23U,1
2,A23G,0.984
3,A23C C57G,0.412
4,A23C C57U,0.406
5,A23C C57A,0.339
6,A23C U38G,0.216
7,A23G C57U,0.418
8,A23G C57G,0.332
9,A23U C27G,0.164
10,A23U C27U,0.29
11,A23U C27A,0.734
12,C24A A40C,0.31
13,C24A A40G,0.591
14,C24A G50C,0.665
15,C24A G50A,0.719
16,A23U G30A,0.96
17,A23U G30U,0.547
18,A23U G30C,0.786
19,C24A G48U,0.737
20,C24A G48A,0.758
21,C24A G48C,0.786
22,A23U C63U,1.01
23,A23U C63G,0.858
24,A23U C63A,0.886

row,Variant,self-cleavage
1,C24A G68U,0.834
2,C24A G68A,0.87
3,A23G C24G,0.36
4,A23G C24A,0.711
5,A23G C24U,0.833
6,A23C G56A,0.852
7,A23C G56C,0.762
8,A23U A40G,0.951
9,A23U A40C,0.678
10,A23U A40U,0.924
11,A23C G48C,0.924
12,A23U U67G,0.979
13,A23U U67C,1
14,A23U U67A,0.975
15,C24A C54U,0.854
16,C24A C57G,0.219
17,C24A C57U,0.248
18,A23G U46C,0.906
19,A23G G31C,0.237
20,A23G U53A,0.916
21,A23G U53C,0.8
22,C24A G58U,0.773
23,C24A G58A,0.4
24,A23G U36A,0.241

row,Variant,self-cleavage
1,A23G U36C,0.891
2,A23G U36G,0.227
3,A23C G50A,0.946
4,A23C G50C,0.981
5,A23C G50U,0.953
6,A23U A59G,0.972
7,A23G U69C,1.06
8,A23G U69A,0.974
9,A23G U69G,1.04
10,A23C U67C,0.97
11,A23C U67A,0.988
12,A23C U64C,0.912
13,A23C U64G,0.878
14,A23U G47A,1.02
15,A23U G47U,0.983
16,C24A C32U,0.729
17,C24A C32A,0.31
18,A23U G31U,0.842
19,A23U G31C,0.215
20,A23C G65C,0.535
21,A23C G65U,0.674
22,A23C G65A,0.764
23,A23G G37A,0.254
24,A23G G37U,0.22

row,Variant,self-cleavage
1,A23G G37C,0.214
2,A23G A52C,0.935
3,A23G A52U,0.933
4,A23G A52G,1.02
5,A23G G47C,0.944
6,A23G G47U,0.991
7,A23G G47A,0.996
8,A23G G50C,1.01
9,A23C C45G,0.931
10,A23C C45U,0.961
11,C24A C33G,0.33
12,C24A C33U,0.761
13,C24A C33A,0.38
14,A23G C33A,0.679
15,A23G C33G,0.262
16,A23G C33U,0.939
17,A23G C32U,0.976
18,A23G C32A,0.436
19,A23C U55C,0.891
20,A23C U53C,0.915
21,A23C U53G,0.81
22,A23U U36C,0.996
23,A23U U36A,0.222
24,A23U U36G,0.35

row,Variant,self-cleavage
1,C24A U38G,0.196
2,C24A U38A,0.393
3,C24A U38C,0.517
4,C24A G41C,0.299
5,C24A G41A,0.391
6,C24A G41U,0.456
7,A23G C54G,0.919
8,A23G C54U,0.964
9,A23G C54A,0.712
10,A23G U38C,0.946
11,A23G U38A,0.897
12,A23G U38G,0.245
13,A23C U61G,0.855
14,A23C U61A,0.832
15,C24A G28A,0.187
16,C24A G28U,0.127
17,C24A G28C,0.129
18,A23G G30C,0.432
19,A23G G30U,0.229
20,A23G G30A,0.79
21,A23U G41A,0.821
22,A23U G41C,0.912
23,A23U G41U,0.868
24,C24A U36A,0.173

row,Variant,self-cleavage
1,C24A U36G,0.205
2,A23G A51U,1
3,A23U C33G,0.773
4,A23U C33A,0.876
5,C24A C66U,0.651
6,C24A C66A,0.397
7,C24A C66G,0.493
8,A23G U61C,0.614
9,A23G G25A,0.156
10,A23G G25U,0.177
11,A23G U26A,0.773
12,A23G C66G,0.594
13,A23G C66A,0.597
14,A23G C66U,0.964
15,A23U U55C,0.953
16,A23U G28U,0.148
17,A23U G28C,0.217
18,A23G A59C,0.699
19,A23G A59U,0.817
20,A23C U26G,0.749
21,A23U C24A,0.888
22,A23G U62G,0.75
23,A23G U62A,0.948
24,A23G U62C,0.667

row,Variant,self-cleavage
1,A23U C57A,0.288
2,A23U C57U,0.28
3,C24A C34G,0.227
4,C24A C34A,0.262
5,A23U U61G,0.881
6,A23U U61A,0.918
7,A23U U49G,0.936
8,A23U U49A,1.03
9,A23U U49C,0.981
10,A23G G68U,1
11,A23G G68A,0.97
12,A23G G68C,0.971
13,A23U C39G,1.02
14,A23U C39A,0.87
15,A23U C39U,0.921
16,A23G U44G,1.02
17,A23G U44C,0.904
18,A23G U44A,0.923
19,A23C U44C,0.874
20,A23G C45G,0.971
21,A23G C45U,0.991
22,A23C U49C,0.927
23,A23C U49A,0.951
24,A23G U49C,0.966

row,Variant,self-cleavage
1,A23G U49A,0.957
2,A23G U49G,1.03
3,A23C U69C,1.04
4,A23C U69A,0.959
5,A23G C29A,0.401
6,A23G C29G,0.211
7,A23G A60G,0.866
8,A23G A60C,0.249
9,A23G A60U,0.385
10,A23C C63G,0.573
11,A23C C63A,0.738
12,C24A G31U,0.257
13,C24A G31C,0.132
14,A23U U46C,0.964
15,A23U U46G,1
16,A23U U46A,0.955
17,A23G G28U,0.137
18,A23U G65A,0.885
19,A23U G65C,0.698
20,C24A C29U,0.158
21,C24A C29G,0.166
22,C24A C29A,0.27
